Source: patent CN113307874A (GUANGZHOU EXCELMAB BIOMEDICAL TECH CO LTD, dated 2021)

T1: 人LAG3抗原 (ACRO, Cat.LA3-H5222) (human, UniProt P18627 23-450)
T1 construct: Bought protein; also called human LAG3 antigen
T1 sequence (looked up): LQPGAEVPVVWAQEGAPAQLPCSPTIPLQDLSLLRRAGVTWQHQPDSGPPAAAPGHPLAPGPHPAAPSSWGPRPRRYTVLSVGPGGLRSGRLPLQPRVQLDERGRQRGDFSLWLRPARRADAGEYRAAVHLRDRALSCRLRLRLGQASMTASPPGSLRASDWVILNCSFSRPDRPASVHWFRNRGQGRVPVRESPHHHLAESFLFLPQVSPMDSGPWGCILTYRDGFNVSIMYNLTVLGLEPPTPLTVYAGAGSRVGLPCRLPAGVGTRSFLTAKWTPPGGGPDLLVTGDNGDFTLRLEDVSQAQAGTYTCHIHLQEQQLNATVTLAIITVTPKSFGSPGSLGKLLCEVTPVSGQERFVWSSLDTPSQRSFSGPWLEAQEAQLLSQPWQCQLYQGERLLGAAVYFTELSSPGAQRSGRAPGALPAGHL

T2: 过表达人LAG3抗原的Jurkat/LAG3细胞表面的人LAG3 (human, UniProt P18627 23-525)
T2 construct: whole, on cells; also called 过表达人LAG3的Jurkat细胞
T2 sequence (looked up): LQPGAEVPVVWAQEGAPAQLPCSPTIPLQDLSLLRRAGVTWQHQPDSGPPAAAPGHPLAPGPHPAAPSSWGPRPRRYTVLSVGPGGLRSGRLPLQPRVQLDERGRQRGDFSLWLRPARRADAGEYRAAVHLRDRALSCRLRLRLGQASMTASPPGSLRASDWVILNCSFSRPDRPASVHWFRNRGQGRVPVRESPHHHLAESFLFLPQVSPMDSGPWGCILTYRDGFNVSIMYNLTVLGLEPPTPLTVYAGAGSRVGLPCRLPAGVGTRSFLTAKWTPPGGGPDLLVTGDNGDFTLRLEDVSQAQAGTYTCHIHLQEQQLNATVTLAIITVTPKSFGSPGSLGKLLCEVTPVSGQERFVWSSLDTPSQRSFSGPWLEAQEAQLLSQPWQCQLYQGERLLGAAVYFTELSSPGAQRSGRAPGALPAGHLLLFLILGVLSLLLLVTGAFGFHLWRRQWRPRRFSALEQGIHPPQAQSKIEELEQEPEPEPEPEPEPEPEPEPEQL


Each binder was assayed against T1, 人LAG3抗原 (ACRO, Cat.LA3-H5222) (assay: indirect ELISA, coated human LAG3).

Row | binding result | Binder
1 | binds | 人源化抗体 hmL42 (antibody, V domains shown) VH: QVQLVQSGAEVKKPGASVKVSCKASGYTFTDYEVHWVKQAPGQGLEWMGAIHPGSGGAAYNQKVKGKVTMTADTSISTAYMELSRLRSDDTAVYYCTSYGWNDWGQGTTVTVS VL: DIQLTQSPSFLSASVGDRVTITCKASQDVSTAVAWYQQKPGKSPKLLISWASTRHTGVPDRFAGSGSGTDFTLTISSLQPEDFATYYCQQYSSYPYTFGQGTKLEIK

What follows are binders tested against T2, 过表达人LAG3抗原的Jurkat/LAG3细胞表面的人LAG3 (assay: indirect flow cytometry on Jurkat/LAG3 cells).

Row | binding result | Binder
2 | binds | 人源化抗体 hmL42 (antibody, V domains shown) VH: QVQLVQSGAEVKKPGASVKVSCKASGYTFTDYEVHWVKQAPGQGLEWMGAIHPGSGGAAYNQKVKGKVTMTADTSISTAYMELSRLRSDDTAVYYCTSYGWNDWGQGTTVTVS VL: DIQLTQSPSFLSASVGDRVTITCKASQDVSTAVAWYQQKPGKSPKLLISWASTRHTGVPDRFAGSGSGTDFTLTISSLQPEDFATYYCQQYSSYPYTFGQGTKLEIK

Target: T1, 人LAG3抗原 (ACRO, Cat.LA3-H5222)
Experiment: indirect ELISA, coated human LAG3
Remark: another data set of the same source

Row | EC50 [µg/mL] | Binder
3 | 0.437 | hmL42人源化亲和力成熟变体 R3C5 (antibody, V domains shown) VH: QVQLVQSGAEVKKPGASVKVSCKASGYTFTDYEVHWVKQAPGQGLEWMGAIHPGSGGAAYNQKVKGKVTMTADTSISTAYMELSRLRSDDTAVYYCTSYGWNDWGQGTTVTVS VL: DIQLTQSPSFLSASVGDRVTITCKASQDVSTAVAWYQQKPGKSPKLLISWASTRHTGVPDRFAGSGSGTDFTLTISSLQPEDFATYYCQQYWVWDYVFGQGTKLEIK
4 | 0.112 | hmL42人源化亲和力成熟变体 R3D4 (antibody, V domains shown) VH: QVQLVQSGAEVKKPGASVKVSCKASGYTFTDYEVHWVKQAPGQGLEWMGAIHPGSGGAAYNQKVKGKVTMTADTSISTAYMELSRLRSDDTAVYYCTSYGWNDWGQGTTVTVS VL: DIQLTQSPSFLSASVGDRVTITCKASQDVSTAVAWYQQKPGKSPKLLISWASTRHTGVPDRFAGSGSGTDFTLTISSLQPEDFATYYCQQYNVFAFTFGQGTKLEIK
5 | 0.184 | hmL42人源化亲和力成熟变体 R3B5 (antibody, V domains shown) VH: QVQLVQSGAEVKKPGASVKVSCKASGYTFTDYEVHWVKQAPGQGLEWMGAIHPGSGGAAYNQKVKGKVTMTADTSISTAYMELSRLRSDDTAVYYCTSYGWNDWGQGTTVTVS VL: DIQLTQSPSFLSASVGDRVTITCKASQDVSTAVAWYQQKPGKSPKLLISWASTRHTGVPDRFAGSGSGTDFTLTISSLQPEDFATYYCQQYVRFSYTFGQGTKLEIK
6 | 0.204 | hmL42人源化亲和力成熟变体 R2E8 (antibody, V domains shown) VH: QVQLVQSGAEVKKPGASVKVSCKASGYTFTDYEVHWVKQAPGQGLEWMGAIHPGSGGAAYNQKVKGKVTMTADTSISTAYMELSRLRSDDTAVYYCTSYGWNDWGQGTTVTVS VL: DIQLTQSPSFLSASVGDRVTITCKASQDVSTAVAWYQQKPGKSPKLLISWASTRHTGVPDRFAGSGSGTDFTLTISSLQPEDFATYYCHQYIMFPYTFGQGTKLEIK
7 | 0.206 | hmL42人源化亲和力成熟变体 R3G6 (antibody, V domains shown) VH: QVQLVQSGAEVKKPGASVKVSCKASGYTFTDYEVHWVKQAPGQGLEWMGAIHPGSGGAAYNQKVKGKVTMTADTSISTAYMELSRLRSDDTAVYYCTSYGWNDWGQGTTVTVS VL: DIQLTQSPSFLSASVGDRVTITCKASQDVSTAVAWYQQKPGKSPKLLISWASTRHTGVPDRFAGSGSGTDFTLTISSLQPEDFATYYCQQYVDFPFKFGQGTKLEIK
8 | 0.382 | hmL42人源化亲和力成熟变体 R2H11 (antibody, V domains shown) VH: QVQLVQSGAEVKKPGASVKVSCKASGYTFTDYEVHWVKQAPGQGLEWMGAIHPGSGGAAYNQKVKGKVTMTADTSISTAYMELSRLRSDDTAVYYCTSYGWNDWGQGTTVTVS VL: DIQLTQSPSFLSASVGDRVTITCKASQDVSTAVAWYQQKPGKSPKLLISWASTRHTGVPDRFAGSGSGTDFTLTISSLQPEDFATYYCQQYYSWSYTFGQGTKLEIK
9 | 0.175 | hmL42人源化亲和力成熟变体 R3G4 (antibody, V domains shown) VH: QVQLVQSGAEVKKPGASVKVSCKASGYTFTDYEVHWVKQAPGQGLEWMGAIHPGSGGAAYNQKVKGKVTMTADTSISTAYMELSRLRSDDTAVYYCTSYGWNDWGQGTTVTVS VL: DIQLTQSPSFLSASVGDRVTITCKASQDVSTAVAWYQQKPGKSPKLLISWASTRHTGVPDRFAGSGSGTDFTLTISSLQPEDFATYYCQQYIDFPFVFGQGTKLEIK
10 | 0.216 | hmL42人源化亲和力成熟变体 R3B6 (antibody, V domains shown) VH: QVQLVQSGAEVKKPGASVKVSCKASGYTFTDYEVHWVKQAPGQGLEWMGAIHPGSGGAAYNQKVKGKVTMTADTSISTAYMELSRLRSDDTAVYYCTSYGWNDWGQGTTVTVS VL: DIQLTQSPSFLSASVGDRVTITCKASQDVSTAVAWYQQKPGKSPKLLISWASTRHTGVPDRFAGSGSGTDFTLTISSLQPEDFATYYCQQYLSFPFMFGQGTKLEIK
11 | 0.244 | hmL42人源化亲和力成熟变体 R2B11 (antibody, V domains shown) VH: QVQLVQSGAEVKKPGASVKVSCKASGYTFTDYEVHWVKQAPGQGLEWMGAIHPGSGGAAYNQKVKGKVTMTADTSISTAYMELSRLRSDDTAVYYCTSYGWNDWGQGTTVTVS VL: DIQLTQSPSFLSASVGDRVTITCKASQDVSTAVAWYQQKPGKSPKLLISWASTRHTGVPDRFAGSGSGTDFTLTISSLQPEDFATYYCQQYVVFSYSFGQGTKLEIK
12 | 0.138 | hmL42人源化亲和力成熟变体 R3G5 (antibody, V domains shown) VH: QVQLVQSGAEVKKPGASVKVSCKASGYTFTDYEVHWVKQAPGQGLEWMGAIHPGSGGAAYNQKVKGKVTMTADTSISTAYMELSRLRSDDTAVYYCTSYGWNDWGQGTTVTVS VL: DIQLTQSPSFLSASVGDRVTITCKASQDVSTAVAWYQQKPGKSPKLLISWASTRHTGVPDRFAGSGSGTDFTLTISSLQPEDFATYYCQQYVMFPFTFGQGTKLEIK
13 | 0.132 | hmL42人源化亲和力成熟变体 R2A8 (antibody, V domains shown) VH: QVQLVQSGAEVKKPGASVKVSCKASGYTFTDYEVHWVKQAPGQGLEWMGAIHPGSGGAAYNQKVKGKVTMTADTSISTAYMELSRLRSDDTAVYYCTSYGWNDWGQGTTVTVS VL: DIQLTQSPSFLSASVGDRVTITCKASQDVSTAVAWYQQKPGKSPKLLISWASTRHTGVPDRFAGSGSGTDFTLTISSLQPEDFATYYCMGYWVFPYTFGQGTKLEIK
14 | 0.183 | hmL42人源化亲和力成熟变体 R3H9 (antibody, V domains shown) VH: QVQLVQSGAEVKKPGASVKVSCKASGYTFTDYEVHWVKQAPGQGLEWMGAIHPGSGGAAYNQKVKGKVTMTADTSISTAYMELSRLRSDDTAVYYCTSYGWNDWGQGTTVTVS VL: DIQLTQSPSFLSASVGDRVTITCKASQDVSTAVAWYQQKPGKSPKLLISWASTRHTGVPDRFAGSGSGTDFTLTISSLQPEDFATYYCQQYVDFPYTFGQGTKLEIK
15 | 0.119 | hmL42人源化亲和力成熟变体 R2D12 (antibody, V domains shown) VH: QVQLVQSGAEVKKPGASVKVSCKASGYTFTDYEVHWVKQAPGQGLEWMGAIHPGSGGAAYNQKVKGKVTMTADTSISTAYMELSRLRSDDTAVYYCTSYGWNDWGQGTTVTVS VL: DIQLTQSPSFLSASVGDRVTITCKASQDVSTAVAWYQQKPGKSPKLLISWASTRHTGVPDRFAGSGSGTDFTLTISSLQPEDFATYYCQQYMSFAFTFGQGTKLEIK
16 | 0.248 | hmL42人源化亲和力成熟变体 R3C4 (antibody, V domains shown) VH: QVQLVQSGAEVKKPGASVKVSCKASGYTFTDYEVHWVKQAPGQGLEWMGAIHPGSGGAAYNQKVKGKVTMTADTSISTAYMELSRLRSDDTAVYYCTSYGWNDWGQGTTVTVS VL: DIQLTQSPSFLSASVGDRVTITCKASQDVSTAVAWYQQKPGKSPKLLISWASTRHTGVPDRFAGSGSGTDFTLTISSLQPEDFATYYCQQYVAFSFTFGQGTKLEIK
17 | 0.16 | hmL42人源化亲和力成熟变体 R2G10 (antibody, V domains shown) VH: QVQLVQSGAEVKKPGASVKVSCKASGYTFTDYEVHWVKQAPGQGLEWMGAIHPGSGGAAYNQKVKGKVTMTADTSISTAYMELSRLRSDDTAVYYCTSYGWNDWGQGTTVTVS VL: DIQLTQSPSFLSASVGDRVTITCKASQDVSTAVAWYQQKPGKSPKLLISWASTRHTGVPDRFAGSGSGTDFTLTISSLQPEDFATYYCQQYWEFSFTFGQGTKLEIK
18 | 0.221 | hmL42人源化亲和力成熟变体 R2C9 (antibody, V domains shown) VH: QVQLVQSGAEVKKPGASVKVSCKASGYTFTDYEVHWVKQAPGQGLEWMGAIHPGSGGAAYNQKVKGKVTMTADTSISTAYMELSRLRSDDTAVYYCTSYGWNDWGQGTTVTVS VL: DIQLTQSPSFLSASVGDRVTITCKASQDVSTAVAWYQQKPGKSPKLLISWASTRHTGVPDRFAGSGSGTDFTLTISSLQPEDFATYYCMSYVVFPYTFGQGTKLEIK
19 | 0.202 | hmL42人源化亲和力成熟变体 R2 (antibody, V domains shown) VH: QVQLVQSGAEVKKPGASVKVSCKASGYTFTDYEVHWVKQAPGQGLEWMGAIHPGSGGAAYNQKVKGKVTMTADTSISTAYMELSRLRSDDTAVYYCTSYGWNDWGQGTTVTVS VL: DIQLTQSPSFLSASVGDRVTITCKASQDVSTAVAWYQQKPGKSPKLLISWASTRHTGVPDRFAGSGSGTDFTLTISSLQPEDFATYYCMGYLFFPYTFGQGTKLEIK
20 | 0.147 | hmL42人源化亲和力成熟变体 R3H5 (antibody, V domains shown) VH: QVQLVQSGAEVKKPGASVKVSCKASGYTFTDYEVHWVKQAPGQGLEWMGAIHPGSGGAAYNQKVKGKVTMTADTSISTAYMELSRLRSDDTAVYYCTSYGWNDWGQGTTVTVS VL: DIQLTQSPSFLSASVGDRVTITCKASQDVSTAVAWYQQKPGKSPKLLISWASTRHTGVPDRFAGSGSGTDFTLTISSLQPEDFATYYCQQYWVFSFTFGQGTKLEIK
